Experimental data reported in patent publication US20160289339A1 (IMMUNWORK, published 2016).

Assays:
[1] = molecular target: T1, mα1.Fc recombinant protein (human, UniProt P01876 103-333); assay: ELISA screening of hybridoma culture medium
T1 construct: leader/His tag/linker of the vector as for the other constructs
Procedure: Fifty microgram of the chimeric protein was used to immunize each Balb/c mouse subcutaneously for 4-5 times in a two-week interval. Three days before cell fusion, ten microgram of the chimeric protein was injected into each mouse intravenously. The splenocytes isolated from immunized mice were fused with mouse myeloma cells FO by using polyethylene glycol 1500 (Roche). After fusion procedures, cells were grown in HAT selection medium for 10-12 days and the cultured medium was transferred for ELISA screening (detailed in the next section). […] Hybridoma clones which produce antibodies reacting to mα1.FcL-LZ and not reacting to mα1.Fc were identified as candidates by using horseradish peroxidase (HRP)-conjugated goat anti-mouse IgG.Fc antibodies (Jackson ImmunoResearch) in ELISA. To further test the binding of hybridoma candidates towards mIgA-expressing B cells, 2×10⁵ DAKIKI cells were incubated with 100 μl of cultured medium on ice for 30 min. Cells were washed with staining buffers [PBS with 2% fetal bovine serum (FBS, Invitrogen) and 0.05% sodium azide] and incubated with FITC-labeled rabbit F(ab)′₂ anti-mouse IgG antibodies (AbD Serotech) 1:400 diluted in staining buffers on ice for 30 min. After washing, cells were resuspended in 200 μl of staining buffer and subjected to flow cytometric analyses. […]

[2] = molecular target: T2, mα1.FcS expressed on Ramos cells (human, UniProt P01876 103-398); assay: flow cytometry on Ramos/mα1.FcS cells, 1 µg/ml
T2 construct: also called Ramos/mα1.FcS
Procedure: (§1) For flow cytometric assays in the examples, 3C10 was used as a positive control of detecting mIgA expression and a mouse anti-human mIgE mAb 4B12 (Igγ1, κ) was served as a negative control. To perform the cell staining, 10⁶ cells were washed and incubated with mAbs in 100 μl of staining buffers on ice for 30 min. Cells were subsequently washed with staining buffers and incubated with FITC-labeled rabbit F(ab)′₂ anti-mouse IgG antibodies […] 1:400 diluted in 100 μl staining buffers on ice for 30 min. After washing, cells were resuspended in 400 μl of staining buffers and subjected to flow cytometric analyses in a FACSCanto II (BD Biosciences). […] At the low concentrations (1 μg/ml) staining signals of 29C11 towards these three mIgA-expressing B cells are undetectable.

[3] = molecular target: T3, membrane-bound IgA (mIgA) on DAKIKI cells (human, UniProt P01876 1-398); assay: flow cytometry on DAKIKI cells, 10 µg/ml against 1 µg/ml
T3 construct: whole, on cells; also called mIgA-expressing B cells
T3 sequence (P01876 whole entry): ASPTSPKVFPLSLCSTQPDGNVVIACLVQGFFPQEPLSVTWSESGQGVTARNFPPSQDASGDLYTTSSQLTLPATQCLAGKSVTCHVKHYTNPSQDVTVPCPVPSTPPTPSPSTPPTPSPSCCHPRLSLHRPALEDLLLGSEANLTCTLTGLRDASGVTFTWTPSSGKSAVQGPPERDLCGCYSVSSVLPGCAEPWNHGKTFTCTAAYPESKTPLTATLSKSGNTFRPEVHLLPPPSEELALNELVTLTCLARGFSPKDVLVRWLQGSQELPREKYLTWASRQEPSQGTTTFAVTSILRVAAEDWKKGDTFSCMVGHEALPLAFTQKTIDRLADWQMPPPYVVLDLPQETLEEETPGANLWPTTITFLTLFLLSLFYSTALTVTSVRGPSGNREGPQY
Procedure: as §1

[4] = molecular target: T4, synthetic polypeptide maF1-2 (human); assay: ELISA on coated synthetic polypeptides
T4 peptide: GSCSVADWQMPP
Procedure: (§2) Anti-migis-α mAbs 8G7 (Igγ2b, κ) and 29C11 (Igγ1, κ) were purified from hybridoma culturing medium by using Protein A Sepharose CL-4B medium (GE Healthcare). Purified mAbs were stored in PBS at the concentration of 1 mg/ml. A mouse anti-human IgA1.Fc mAb 3C10 (Igγ1, Abcam) and mouse total IgG (Sigma-Aldrich) were used as positive and negative controls, respectively. Various migis-α-containing recombinant proteins and several irrelevant proteins were tested in ELISA. Proteins were coated at 1 μg/ml in 0.05M carbonate/bicarbonate buffers in ELISA plates at 4° C. for overnight. Plates were washed with PBST (PBS with 0.05% Tween® 20) and blocked by PBS/BSA (PBS with 1% BSA) at room temperature for 1 h. After washing with PBST, mAbs at 1 μg/ml in PBS/BSA were added into plates and incubated at room temperature for 1 hr. Plates were washed with PBST and then HRP-conjugated goat anti-mouse IgG.Fc antibodies 1:10,000 diluted in PBS/BSA were adding into plates. After incubation at room temperature for 1 hr and washing with PBST, Tetramethylbenzidine substrates (Clinical Scientific Products) were added into plates for colorimetric measurement.
(§3) Synthetic migis-αL polypeptides were further used to study binding epitopes of anti-migis-α mAbs by ELISA. Polypeptides maFL (SEQ ID NO:9), maFa (SEQ ID NO:10), maFb (SEQ ID NO:11), and maFc (SEQ ID NO:12) are fragments that represent the full length, the N-terminal part, the middle part, and the C-terminal part of migis-αL sequences (FIG. 3A). Polypeptides maF1-2 (SEQ ID NO:13), maF1-3 (SEQ ID NO:14), maF2 (SEQ ID NO:15), and maF2-1 (SEQ ID NO:16) were designed to test shorter sequences for binding activity of anti-migis-α mAbs. Polypeptides at 10 μg/ml were coated in micro-well plates for reacting and ELISA procedures were followed as described above. […] In contrast, 29C11 is capable of binding to both the N-terminal and the middle part of migis-αL sequences, and also reacting to short fragments of the N-terminal polypeptides. (FIGS. 3B-C).

[5] = molecular target: T5, synthetic polypeptide maF2-1 (human); assay: ELISA on coated synthetic polypeptides
T5 peptide: DWQMPPPYVVLD
Procedure: as §2, §3

[6] = molecular target: T6, synthetic polypeptide maF2 (human); assay: ELISA on coated synthetic polypeptides
T6 peptide: VADWQMPPPYVV
Procedure: as §2, §3

[7] = molecular target: T7, synthetic polypeptide maF1-3 (human); assay: ELISA on coated synthetic polypeptides
T7 peptide: CSVADWQMPPPY
Procedure: as §2, §3

[8] = molecular target: T8, synthetic polypeptide maFa, N-terminal part of migis-αL (human); assay: ELISA on coated synthetic polypeptides, 10 µg/ml
T8 construct: also called the N-terminal polypeptide
T8 peptide: GSCSVADWQMPPPYVVLD
Procedure: as §2
Synthetic migis-αL polypeptides were further used to study binding epitopes of anti-migis-α mAbs by ELISA. […]

[9] = molecular target: mα1.FcL-456C expressed on Ramos cells (human, UniProt P01876 103-398); assay: flow cytometry on Ramos/mα1.FcL-456S (so in the source) cells, 1 µg/ml
Procedure: as §1

[10] = molecular target: T9, mα1.FcL-456S-LZ recombinant protein (human); assay: ELISA, serial dilution of mAb on coated mα1.FcL-456S-LZ
T9 construct: also called mα1.FcL-LZ
T9 chain: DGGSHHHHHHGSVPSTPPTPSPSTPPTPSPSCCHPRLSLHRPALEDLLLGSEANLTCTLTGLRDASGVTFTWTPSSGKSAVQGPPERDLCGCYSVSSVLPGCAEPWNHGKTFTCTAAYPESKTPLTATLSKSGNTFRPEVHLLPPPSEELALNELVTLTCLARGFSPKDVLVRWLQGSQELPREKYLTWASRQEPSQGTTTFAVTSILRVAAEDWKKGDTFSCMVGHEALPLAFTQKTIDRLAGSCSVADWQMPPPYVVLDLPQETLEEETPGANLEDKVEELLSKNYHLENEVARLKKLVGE
Procedure: as §2
The binding curves were analyzed by the software Prism® (GraphPad) and the equation used for calculation was shown below.

binding result [1]: no binding | fold of MFI over background against that of 29C11, (MFI8G7-MFIbackground)/(MFI29C11-MFIbackground) [2]: 10.4 fold | fold of the increment of MFI (high minus low concentration, over background) against that of 29C11 [3]: 12.5 fold | binding result [8]: binds | fold of MFI over background against that of 29C11, (MFI8G7-MFIbackground)/(MFI29C11-MFIbackground) [9]: 13.5 fold | fold lower concentration at half the maximum binding than 29C11 [10]: ~6 fold
B1: anti-migis-α mAb 8G7 (antibody, V domains shown)
VH: EVQLQESGPSLVKPSQTLSLTCSVTGDSITNGYWNWIRKFPGNKLEYMGYISYSGSTYYNPSLKSRIFITRDTSKNQYYLQLNSVTTEDTAIYYCARWLGGRAYWGQGTTLIVSS
VL: DIVMTQSQKFMSTSVGDRVSVTCKASQNVGTNVVWYQQKPGQSPKTLIYSASRRFSGVPDRFTGSGSGTDFTLTISNVQSEDLAEYFCQQYNSYPLTFGAGTKLELK
notes: also called 8G7 mAb
binding result [4]: no binding (tested: 10 µg/ml peptide coated) | binding result [5]: no binding (tested: 10 µg/ml peptide coated) | binding result [6]: no binding (tested: 10 µg/ml peptide coated) | binding result [7]: no binding (tested: 10 µg/ml peptide coated)
